# Columns and labels:
# [1] = target: HSV-2 (MS strain, VR-540 ATCC): unidentified viral antigen on virions or infected VERO-E6 cells (Herpes simplex virus 2); test: cell-based or functional assay
# [2] = target: HSV-1 (HF strain, VR-260 ATCC): unidentified viral antigen on virions or infected VERO-E6 cells (Herpes simplex virus 1); test: cell-based or functional assay
binder,measurement,setting,value
"Fab Ex2 (IgG1 Fab format) (Fab, V domains shown) VH: LESGGGVVQPGRSLRLSCAASGFTFTTFAMHWVRQAPGKGLEWLAFISYDGSNKYYADSVKGRFTISRDNSKNTLYLQMNSLRAEDTSIYYCAREVWNYADYWGQGALVTVSS VL: ELTQSPGTLSSSPGHRATLSCKASAPLGSNHMAWYQQKPGQAPRLLIYGASTRATGVPARFTGSGSGTDFTLTISSLQPEDFATYYCQQANSFPRTFGQGTKVEIK",concentration reducing HSV cytopathic effect by 50% (IIF assay),[1],< 5 µg/mL
same,concentration reducing HSV cytopathic effect by 50% (IIF assay),[2],< 5 µg/mL
